Experimental findings from US20230279115A1 (MABWELL SHANGHAI BIOSCIENCE, published 2023) are described below.

Residue numbers refer to the chain shown, from its start.

To fix the notation:
B1: KN035 (fusion protein of the KN035 variable region and Fc) (Fc fusion)
chain: QVQLVESGGGLVQPGGSLRLSCAASGKMSSRRCMAWFRQAPGKERERVAKLLTTSGSTYLADSVKGRFTISRDNSKNTVYLQMNSLRAEDTAVYYCAADSFEDPTCTLVTSSGAFQYWGQGTLVTVSS
notes: Built by the same strategy as chF2; also called Envafolimab; control antibody; not shown: human Fc (IgG1, hFc) from the same expression vector and strategy as chF2
B2: hzF2-m9 (VHH)
VHH: EVQLVESGGGLVQPGGSLRLSCAASRDSDEGASCMGWFRQAPGKEREGVAIIFNAGERTDYGDSVKGRFTISRDNAKNTLYLQMNSLRAEDTAVYYCATVWCGSWVARSWGQGTLVTVSS
notes: also called humanized single variable domain antibody hzF2-m9
B3: hzF2-m2 (VHH)
VHH: B2 VHH with R26G, E30D, E45G, R46L
notes: The parent hzF2 is a VHH-human IgG1 Fc fusion; also called humanized single variable domain antibody hzF2-m2
B4: hzF2-m3 (VHH)
VHH: B2 VHH with D29S, E30S, E45G, R46L
notes: The parent hzF2 is a VHH-human IgG1 Fc fusion; also called humanized single variable domain antibody hzF2-m3
B5: hzF2-m1 (VHH)
VHH: B2 VHH with E30D, C34S, E45G, R46L, C102S
notes: The parent hzF2 is a VHH-human IgG1 Fc fusion; also called humanized single variable domain antibody hzF2-m1
B6: hzF2-m4 (VHH)
VHH: B2 VHH with D29N, E30D, E45G, R46L
notes: The parent hzF2 is a VHH-human IgG1 Fc fusion; also called humanized single variable domain antibody hzF2-m4
B7: hzF2-m7 (VHH)
VHH: B2 VHH with E30D, G31S, E45G, R46L
notes: The parent hzF2 is a VHH-human IgG1 Fc fusion; also called humanized single variable domain antibody hzF2-m7
B8: hzF2-m8 (VHH)
VHH: B2 VHH with E30D, A55V
notes: also called humanized single variable domain antibody hzF2-m8
B9: hzF2-m16 (VHH)
VHH: B2 VHH with A55V, W101F, W105F
notes: Framework 2 is KEREG; also called humanized single variable domain antibody hzF2-m16
B10: hzF2-m12 (VHH)
VHH: B2 VHH with A55V
notes: Framework 2 is KEREG; also called humanized single variable domain antibody hzF2-m12
B11: hzF2-m10 (VHH)
VHH: B2 VHH with E30D, W101Y
notes: Framework 2 is KEREG; also called humanized single variable domain antibody hzF2-m10
B12: hzF2-m13 (VHH)
VHH: B2 VHH with E30D, W101F, W105F
notes: Framework 2 is KEREG; also called humanized single variable domain antibody hzF2-m13
B13: hzF2-m15 (VHH)
VHH: B2 VHH with A55V, W101F, W105Y
notes: Framework 2 is KEREG; also called humanized single variable domain antibody hzF2-m15
B14: hzF2-m11 (VHH)
VHH: B2 VHH with E30D, W101Y, W105Y
notes: Framework 2 is KEREG; also called humanized single variable domain antibody hzF2-m11
B15: hzF2-m14 (VHH)
VHH: B2 VHH with A55V, W101Y, W105Y
notes: Framework 2 is KEREG; also called humanized single variable domain antibody hzF2-m14

T1 sequence (Q9EP73 19-238 limits assumed): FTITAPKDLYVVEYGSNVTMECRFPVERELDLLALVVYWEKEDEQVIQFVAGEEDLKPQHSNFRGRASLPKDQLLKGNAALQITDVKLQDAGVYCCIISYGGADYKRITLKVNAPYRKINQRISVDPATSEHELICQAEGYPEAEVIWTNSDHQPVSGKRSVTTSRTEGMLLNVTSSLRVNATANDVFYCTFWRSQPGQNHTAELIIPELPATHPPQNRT

One assay has as its target T1, murine PD-L1 recombinant protein (murine, UniProt Q9EP73 19-238, limits assumed).
T1 construct: also called recombinant murine PD-L1
Nature of the assay: BLI (Octet QKe), antibody captured on AHC probe, antigen as mobile phase. The procedure:
(§1) The Octet QKe system instrument from Fortebio Company was used to determine whether chF2 could bind to recombinant monkey PD-L1 and recombinant murine PD-L1 by using the capture antibody (AHC) biological probe of anti-human antibody Fc segment to capture the Fc segment of the antibody. During the measurement, chF2 was diluted to 4 µg/mL with PBS buffer and flowed over the surface of AHC probe (PALL, Cat.: 18-0015) for 120 s. The monkey PD-L1 recombinant protein and the murine PD-L1 recombinant protein were used as mobile phases to interact with the antibodies captured on the surface of the chip. The PD-L1 recombinant protein concentration was 60 nM. The binding time of each antigen was 300 s, and the final dissociation time was 300 s.
For the molecule B1, the binding result was “no binding (tested: 60 nM)”.

The target in another assay is T2, human PD-L1 expressed on the cell surface (human, UniProt Q9NZQ7 19-290).
T2 construct: whole, on cells; also called CHO-PD-L1-CD3L cells; CHO-PD-L1
T2 sequence (Q9NZQ7 19-290): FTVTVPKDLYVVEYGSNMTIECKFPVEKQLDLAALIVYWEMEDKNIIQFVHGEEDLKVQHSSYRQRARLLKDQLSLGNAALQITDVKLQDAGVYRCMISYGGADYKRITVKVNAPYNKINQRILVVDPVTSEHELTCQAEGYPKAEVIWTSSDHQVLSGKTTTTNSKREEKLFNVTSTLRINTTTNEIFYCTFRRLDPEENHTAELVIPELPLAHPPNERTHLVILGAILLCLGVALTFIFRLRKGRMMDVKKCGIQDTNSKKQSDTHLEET
Nature of the assay: flow cytometry on CHO-PD-L1-CD3L cells, FITC anti-human Fc. The procedure:
Cells (CHO-PD-L1-CD3L cells) were collected after centrifugation, divided into 5×10⁵ cells/sample/100 µL. Gradient diluted single variable domain antibody was added to the cells at a final concentration of 66 nM as the highest concentration, 3-fold serial dilution to make 10 gradients; then incubated on ice for 2h. The cells were washed twice with ice-cold PBS (containing 0.05% Tween). FITC-labeled anti-human Fc secondary antibody (Cat.: F9512, Sigma) was added, and incubated on ice for 1h. The cells were washed twice with ice-cold PBS (containing 0.05% Tween), resuspended in 200 µL of Flow Cytometry Buffer, and the mean fluorescence intensity (MFI) of the cells was detected by flow cytometer (Model B49007AD, SNAW31211, BECKMAN COULTER).
B1: the EC50 is 1.27 nM.

In the next assay the target is T2, human PD-L1 expressed on the cell …. Kind of assay: cell-based or functional assay.
As for B1, the “Reporter Gene Assay (Jurkat-PD1-NFAT cells and CHO-PD-L1-CD3L cells), luciferase RLU, EC50” value was 4.9 nM.

In the next assay the target is T3, PD-L1-mFc (human, UniProt Q9NZQ7 19-238).
T3 construct: range 19-238; not shown: mouse Fc (mFc)
T3 sequence (Q9NZQ7 19-238 limits assumed): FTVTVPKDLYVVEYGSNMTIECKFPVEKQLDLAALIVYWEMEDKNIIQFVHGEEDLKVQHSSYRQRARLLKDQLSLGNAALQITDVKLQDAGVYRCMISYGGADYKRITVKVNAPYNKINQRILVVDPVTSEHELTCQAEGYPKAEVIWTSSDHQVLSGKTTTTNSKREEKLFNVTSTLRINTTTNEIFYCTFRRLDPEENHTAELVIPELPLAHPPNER
Nature of the assay: blocking ELISA: PD-1-hFc coated at 0.5 µg/mL, 0.5 µg/mL PD-L1-mFc co-incubated with the titrated binder (50 nM, 1.5-fold, 10 points), detection with HRP-anti-mouse Fc; blocked partner PD-1-hFc. The procedure:
Human PD-1-hFc (PD-1 Sequence No. NP_005009.2, 21aa-167aa) was diluted with PBS to 0.5 µg/mL, coated on an ELISA plate overnight at 4° C. Then the plate was blocked with 5% BSA for 60 min at 37° C. in a thermostatic incubator. Gradient dilutions of hzF2 and control antibody KN035, and an isotype control NC-hIgG1 (initial working concentration of 50 nM, 1.5-fold dilution to 10 concentration gradients), were added, then PD-L1-mFc (PD-L1 Sequence No. NP_054862.1, 19aa-238aa) was added at a working concentration of 0.5 µg/mL, co-incubated and reacted in a thermostatic incubator at 37° C. for 60 min. The plate was washed 4 times with PBST; then added 1:5000 diluted HRP-anti-mouse Fc (Cat.:115-035-071, Jackson Immuno Research) thereto, reacted for 45 min, and added TMB (Beijing Taitianhe Biology, Cat.: ME142) substrate to develop color for 15 min. After adding 2 M HCl to stop the reaction, the plate was read and recorded about the absorbance value of A450nm-630nm of the well plate by a reader taking 630 nm as the reference wavelength, and 450 nm as the detection wavelength.
As for B1, the IC50 stood at 8.1 nM.

The target in the next assay is T4, human PD-L1 recombinant protein (human, UniProt Q9NZQ7 19-238).
T4 construct: also called recombinant PD-L1 protein; recombinant PD-L1
T4 sequence (Q9NZQ7 19-238 limits assumed): as above
Nature of the assay: BLI (Octet QKe), antibody captured on AHC probe, PD-L1 60 nM. The procedure:
Using the Octet QKe system instrument from Fortebio Company, the ability of chF2 to bind corresponding recombinant antigen was determined by using the capture antibody (AHC) biological probe against the Fc fragment of the human antibody to capture the Fc fragment of the antibody. During the measurement, chF2 was diluted with PBS buffer to 4 µg/mL, and flowed over the surface of AHC probe (Cat.: 18-0015, PALL) for 120 s. A human PD-L1 recombinant protein was used as the mobile phase to interact with the antibody captured on the chip surface. The recombinant PD-L1 protein concentration was 60 nM. The binding time for each antigen was 300 s, and the final dissociation time was 300 s.
In the case of B1, the Kd came to 1.5 nM, the koff was determined as 0.00035 s⁻¹ and the kon is 233000 M⁻¹ s⁻¹.

Another assay addresses T5, monkey PD-L1 recombinant protein (monkey).
T5 construct: also called recombinant monkey PD-L1
Nature of the assay: BLI (Octet QKe), antibody captured on AHC probe, antigen 60 nM. The procedure:
as §1
With B1, the Kd was 1.32 nM, the koff came to 0.000281 s⁻¹ and the kon stood at 213000 M⁻¹ s⁻¹.

A further assay addresses T4, human PD-L1 recombinant protein. Nature of the assay: BLI, human PD-L1 recombinant protein.
Regarding B2, the Kd came out at 1.34 nM, the off-rate constant (koff) worked out at 0.000434 s⁻¹ and the association rate constant (kon) came to 324000 M⁻¹ s⁻¹.

Regarding B3, the dissociation constant Kd was 1.26 nM, the koff is 0.000709 s⁻¹ and the kon is 562000 M⁻¹ s⁻¹.

Regarding B4, the Kd worked out at 7.8 nM, the off-rate constant (koff) is 0.00487 s⁻¹ and the on-rate (kon) came to 624000 M⁻¹ s⁻¹.

Take B5: the Kd amounted to 2.8 nM, the koff came out at 0.0019 s⁻¹ and the kon was found to be 679000 M⁻¹ s⁻¹.

With B6, the dissociation constant Kd turned out to be 9.36 nM, the koff turned out to be 0.0065 s⁻¹ and the kon was determined as 695000 M⁻¹ s⁻¹.

Turning to B7, the Kd was found to be 4.59 nM, the koff was 0.00157 s⁻¹ and the association rate constant (kon) came to 341000 M⁻¹ s⁻¹.

Take B8: the Kd came to 1.18 nM, the koff was 0.000419 s⁻¹ and the kon was 356000 M⁻¹ s⁻¹.

The next assay shares this target. Kind of assay: BLI (method per paragraph 89); target not given, taken as human PD-L1 recombinant protein.
Take B2: the Kd is 1.34 nM.

For the molecule B9, the Kd turned out to be 3.18 nM.

Consider B10, for which the Kd was 1.54 nM.

As to B3, the Kd is 1.26 nM.

For the molecule B11, the Kd was determined as 4.31 nM.

In the case of B12, the Kd worked out at 4.26 nM.

As for B4, the Kd came to 7.8 nM.

For the molecule B13, the Kd amounted to 4.75 nM.

Regarding B14, the Kd amounted to 3.24 nM.

B5: the dissociation constant Kd was determined as 2.8 nM.

In the case of B6, the Kd was 9.36 nM.

Regarding B7, the Kd is 4.59 nM.

B8: the Kd turned out to be 1.18 nM.

Consider B15, for which the dissociation constant (Kd) is 3.81 nM.
